# Measurements published in US20200010571A1 (Janssen / Centocor, published 2020).
# T1: cynomolgus IL-17A (cynomolgus, UniProt Q16552 24-155 (human entry), limits assumed)
# T1 chain: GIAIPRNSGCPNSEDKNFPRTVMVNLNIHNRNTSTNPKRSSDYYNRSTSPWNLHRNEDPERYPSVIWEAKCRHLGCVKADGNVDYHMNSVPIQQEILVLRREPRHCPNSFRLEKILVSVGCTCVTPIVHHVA
# Assays:
# [1] = biological target: T2, human IL-17A (recombinant) (human, UniProt Q16552 24-155); experiment: cell-based or functional assay
# [2] = biological target: T2, human IL-17A (recombinant); experiment: cell-based or functional assay; remark: listed apart in the source
# [3] = biological target: T3, recombinant human IL-17A/F heterodimer (human, UniProt Q16552 24-155; Q96PD4 31-163); experiment: cell-based or functional assay
# [4] = biological target: T3, recombinant human IL-17A/F heterodimer; experiment: cell-based or functional assay; remark: listed apart in the source
# cynomolgus IL-17A [5] = biological target: T1, cynomolgus IL-17A; experiment: cell-based or functional assay
# cynomolgus IL-17A [6] = biological target: T1, cynomolgus IL-17A; experiment: cell-based or functional assay
# [7] = biological target: T2, human IL-17A (recombinant); experiment: cell-based or functional assay; remark: listed apart in the source
# [8] = biological target: T2, human IL-17A (recombinant); experiment: cell-based or functional assay; remark: listed apart in the source
# [9] = biological target: T2, human IL-17A (recombinant); experiment: competition ELISA: biotinylated rhIL-17A binding to plate-coated rhIL-17RA-Fc; Experiment 1; 95% CI 0.03759-0.04316
# [10] = biological target: T2, human IL-17A (recombinant); experiment: competition ELISA: biotinylated rhIL-17A binding to plate-coated rhIL-17RA-Fc; Experiment 2; 95% CI 0.04003-0.04542
# [11] = biological target: T2, human IL-17A (recombinant); experiment: competition ELISA: biotinylated rhIL-17A binding to plate-coated rhIL-17RA-Fc; Experiment 3; 95% CI 0.07179-0.08047
binder,measurement,setting,value
"mAb 4782 (parental anti-IL-17A antibody, IgG1, F405L) (antibody) heavy: not shown light: QSVLTQPPSVSVAPGQTARISCSGDNLGDKYANWYQQKPGQAPVLVIYDDIDRPSGIPERFSGSNSGNTATLTISGTQAEDEADYYCGSYDFFLGMIVFGGGTKLTVLGQPKAAPSVTLFPPSSEELQANKATLVCLISDFYPGAVTVAWKADSSPVKAGVETTTPSKQSNNKYAASSYLSLTPEQWKSHRSYSCQVTHEGSTVEKTVAPTECS",IC50 (µg/mL); Inhibition of native IL-17A mediated GROα production by NHDF; Experiment 1,[1],0.0207 µg/mL
same,IC50 (µg/mL); Inhibition of native IL-17A mediated GROα production by NHDF; Experiment 2,[1],0.0327 µg/mL
same,IC50 (µg/mL); Inhibition of native IL-17A mediated GROα production by NHDF; Experiment 3,[1],0.0236 µg/mL
same,IC50 (µg/mL); Inhibition of native IL-17A mediated IL-6 production by NHDF; Experiment 1,[2],0.0254 µg/mL
same,IC50 (µg/mL); Inhibition of native IL-17A mediated IL-6 production by NHDF; Experiment 2,[2],0.0336 µg/mL
same,IC50 (µg/mL); Inhibition of native IL-17A mediated IL-6 production by NHDF; Experiment 3,[2],0.0242 µg/mL
same,IC50 (µg/mL); Inhibition of IL-17A/F mediated GROα production by NHDF; Experiment 1,[3],0.473 µg/mL
same,IC50 (µg/mL); Inhibition of IL-17A/F mediated GROα production by NHDF; Experiment 2,[3],0.117 µg/mL
same,IC50 (µg/mL); Inhibition of IL-17A/F mediated GROα production by NHDF; Experiment 3,[3],0.317 µg/mL
same,IC50 (µg/mL); Inhibition of IL-17A/F mediated IL-6 production by NHDF; Experiment 1,[4],0.714 µg/mL
same,IC50 (µg/mL); Inhibition of IL-17A/F mediated IL-6 production by NHDF; Experiment 2,[4],0.243 µg/mL
same,IC50 (µg/mL); Inhibition of IL-17A/F mediated IL-6 production by NHDF; Experiment 3,[4],0.99 µg/mL
same,IC50 (µg/mL); Inhibition of cyno IL-17A mediated GROα production by NHDF; Experiment 1,cynomolgus IL-17A [5],0.0235 µg/mL
same,IC50 (µg/mL); Inhibition of cyno IL-17A mediated GROα production by NHDF; Experiment 2,cynomolgus IL-17A [5],0.0466 µg/mL
same,IC50 (µg/mL); Inhibition of cyno IL-17A mediated GROα production by NHDF; Experiment 3,cynomolgus IL-17A [5],0.0349 µg/mL
same,IC50 (µg/mL); Inhibition of cyno IL-17A mediated IL-6 production by NHDF; Experiment 2,cynomolgus IL-17A [6],0.0437 µg/mL
same,IC50 (µg/mL); Inhibition of cyno IL-17A mediated IL-6 production by NHDF; Experiment 3,cynomolgus IL-17A [6],0.0248 µg/mL
same,IC50 (nM); Inhibition of rhTNF-α and IL-17 induced IL-6 secretion from RA-FLSs; Donor 1 (ST1320),[7],0.34 nM
same,IC50 (nM); Inhibition of rhTNF-α and IL-17 induced IL-6 secretion from RA-FLSs; Donor 2 (ST1349),[7],0.22 nM
same,IC50 (nM); Inhibition of rhTNF-α and IL-17 induced IL-6 secretion from RA-FLSs; Donor 3 (ST1359),[7],0.25 nM
same,IC50 (nM); Inhibition of rhTNF-α and IL-17A induced GROα secretion from RA-FLSs from three donors; Donor 1 (ST1320),[8],0.25 nM
same,IC50 (nM); Inhibition of rhTNF-α and IL-17A induced GROα secretion from RA-FLSs from three donors; Donor 2 (ST1349),[8],0.12 nM
same,IC50 (nM); Inhibition of rhTNF-α and IL-17A induced GROα secretion from RA-FLSs from three donors; Donor 3 (ST1359),[8],0.14 nM
same,IC50,[9],0.0403 µg/mL
same,IC50,[10],0.0426 µg/mL
same,IC50,[11],0.076 µg/mL
